Experimental data: patent US7807881B2, “Methods to confer herbicide resistance” (Athenix Corp., priority 2003, dated 2010)

Experiments:
[1] = test system: E. coli ΔaroA; experiment: Genetic complementation of aroA (EPSP synthase) deletion mutant; format: cell-based; conditions: ΔaroA plated on LB, M63, and M63 with phenylalanine, tryptophan, tyrosine
From the text: The E. coli aroA gene codes for EPSP synthase, the target enzyme for glyphosate. […] However, genes encoding EPSPS activity can restore ability to grow […] upon aroA mutant E. coli strains. Thus, a test for genetic complementation of an aroA mutant is a highly sensitive method to test if a gene is capable of functioning as an EPSPS in E. coli. Such tests for gene function by genetic complementation are known in the art.
A deletion of the aroA gene was created in E. coli XL-1 MRF′ (Stratagene) by PCR/recombination methods known in the art and outlined by Datsenko and Wanner, (2000) Proc. Natl. Acad. Sci. USA 97:6640-6645. This system is based on the Red system that allows for chromosomal disruptions of targeted sequences. A large portion (1067 nt of the 1283 nt) of the aroA coding region was disrupted by the engineered deletion.
The ability of an EPSPS to complement the mutant phenotype of ΔaroA was confirmed. Clone pAX482, an E. coli expression vector containing the wild-type E. coli aroA gene, was transformed into ΔaroA, and transformed cells were selected. These cells (containing a functional aroA gene residing on a plasmid) were then plated on LB media, M63, and M63 with amino acid supplements. […]

[2] = test system: E. coli; experiment: Growth of E. coli clones in M9 minimal media containing glyphosate (OD600); format: cell-based; conditions: 37° C., 28 hours after inoculation, triplicate
Protocol: Starter cultures of E. coli containing GDC-1 (full), GDC-2, or vector alone were grown overnight in LB media, diluted 1:1000 into 3 ml M9 minimal media containing 0, 2, 5, 10, 20 and 30 mM glyphosate and grown at 37° C. Each strain was grown in triplicate at each concentration. OD600 was measured at 0, 7, 24, and 28 hours after inoculation.

[3] = Acetolactate synthase activity (acetoin detection, absorbance 525 nm); format: biochemical; conditions: 50 mM pyruvate, pH 7.0, 2 hours at 37° C.
Protocol: Acetolactate synthases are decarboxylating enzymes that condense two pyruvate molecules to form acetolactate with the release of a CO2 moiety from one of the pyruvate substrates. In the detection of the enzymatic reaction described by Pang and Duggleby (Pang and Duggleby (1999) Biochemistry 18:5222-5231), the product acetolactate is converted to acetoin by incubation with 1% H2SO4 for 15 minutes at 60° C. followed by neutralization with KOH. The acetoin is then detected as described by Westerfeld (Westerfeld (1945) J. Biol. Chem. 161:495-502), using 0.15% creatine and 1.5% alpha-naphthol (dissolved in 2.5 N NaOH). The red colored reaction product is quantified by absorbance at 525 nm.
Samples containing either 5 μg or 10 μg of GDC-2 were incubated in 50 mM pyruvate, 1 mM […] pyrophosphate, 10 mM MgCl2, 0.01 mM Flavin adenine dinucleotide (FAD), 100 mM potassium phosphate buffer pH 7.0 (total reaction volume of 50 μl) for 2 hours at 37° C. The reaction was stopped by the addition of 1 μl of 50% sulfuric acid (H2SO4) and incubated at 60° C. for 15 minutes. The reaction was neutralized by the addition of 30 μl of 1 N KOH followed by the addition of 10 μl of 1.5% creatine and 10 μl of 15% alpha-napthol dissolved in 2.5 N NaOH. The red colored reaction product was quantified by absorbance at 525 nm.

[4] = In vitro modification of C14 labeled glyphosate, products analysed by HPLC; format: biochemical; conditions: 100 ng protein, 2 mM glyphosate, Na-Citrate pH 6.0, 1 mM TPP, 2 mM MgCl2, 60 minutes
Protocol: The ability of GDC-1 to modify glyphosate in vitro was tested by incubating GDC-1 with a mixture of radiolabeled and non-labeled glyphosate, and analyzing the reaction products by HPLC.
100 ng of GDC-1 purified protein was incubated with 20,000 cpm of C^14 labeled glyphosate (NaOOCCH2NH^14CH2PO3H2; Sigma catalog #G7014), mixed with unlabelled glyphosate to a final concentration of 2 mM in a reaction buffer of 200 mM Na-Citrate, pH 6.0, 1 mM TPP, 2 mM MgCl2. Reaction was allowed to proceed 60 minutes, then 5 μl was applied to HPLC column (Dionex AminoPac PA10 analytical (and guard) column, anion exchange resin; Dionex Corporation). The column was equilibrated with 150 mM sodium hydroxide. Fractions were eluted with a sodium acetate gradient of 150-300 mM sodium acetate. Single drop (40 uL) fractions were collected, and the radioactivity present in each fraction determined using a 96-well scintillation counter. […] Control experiments lacking purified GDC-1 show no peak at this elution time.

[5] = Standard pyruvate decarboxylase assay, coupled with alcohol dehydrogenase (absorbance at 340 nm); format: biochemical; conditions: 100 ng of GDC-1 protein; decrease in absorbance at 340 nm
Protocol: 100 ng of GDC-1 protein was tested for activity in a standard pyruvate decarboxylase assay (Gounaris et al. (1971) J. of Biol. Chem. 246:1302-1309). This assay is a coupled reaction where in the first step the pyruvate decarboxylase (PDC) converts pyruvate to acetaldehyde and CO2. The acetaldehyde produced in this reaction is a substrate for alcohol dehydrogenase, which converts acetaldehyde and β-NADH to ethanol and β-NAD. Thus, PDC activity is detected by virtue of utilization of β-NADH as decrease in absorbance at 340 nm in a spectrophotometer. GDC-1 as well as a control enzyme (pyruvate decarboxylase, Sigma) were tested in this assay.

B1: GDC-2: Glyphosate resistance-conferring decarboxylase protein (SEQ ID NO:15) with TPP-binding domains, homologous to acetolactate synthase (protein)
chain: MMLRSRQASKALRALGQARHFTSTTQPAAVQAPRKVASGQRNQATAATATSAAPNVRATPSPAFNAEEQQQQKHSHVQPLVNPQKSDMDESFIGKTGGEIFHEMMLRQGVKHIFGYPGGAILPVFDAIYNSKHFDFILPRHEQGAGHMAEGYARASGKPGVVLVTSGPGATNVVTPMQDALSDGTPLVVFCGQVPTSAIGSDAFQEADVVGISRACTKWNVMVKNVAELPRRINEAFEIATSGRPGPVLVDLPKDVTAGILRRAIPTETALPALPSAASRAAMESSRKHLEHTIKRVADLVNKAKQPVIYAGQGIIQSEGGPELLKELADKASIPVTTTLQGLGGFDELDEKSLHMLGMHGSAYANMAMQEADLIIALGARFDDRVTLNVAKFAPGARAAAAEKRGGIVHFEVMPKNINKVVQATEAVEGNVGSNLKLLLPEVQAKTMDDRKEWFGKINEWKKKWPLSHYERAERHGLIKPQTLIEELSKLTADRKDKTYIATGVGQHQMWTAQHFRWRHPRSMITSGGLGTMGFGLPAAIGAKVAQPDALVFDIDGDASFGMTLTELATAAQFNIGVKVIVLNNEEQGMVTQWQNLFYEDRYAHTHQVNPDFMKLAESMRVQGRRCVDPEDVVDSLKWLINTDGPALLEVVTDKKVPVLPMVPAGSALHEFLVFDGEKDKKRRELMRERTSGLHG
modifications: Fungal isolate from soil sample
- Complementation of the aroA mutation (growth of ΔaroA on M63 minimal media) [1]: neither GDC-1 nor GDC-2 are capable of complementing the aroA mutation
- OD600 Mean ([2]; 0 mM glyphosate): 0.050
- OD600 Mean ([2]; 2 mM glyphosate): 0.054
- OD600 Mean ([2]; 5 mM glyphosate): 0.056
- OD600 Mean ([2]; 10 mM glyphosate): 0.056
- OD600 Mean ([2]; 20 mM glyphosate): 0.058
- Absorbance 525 nm (acetolactate synthase activity) ([3]; 5 μg GDC-2): 1.99
- Absorbance 525 nm (acetolactate synthase activity) ([3]; 10 μg GDC-2): 3.13

B2: GDC-1: Glyphosate resistance-conferring decarboxylase protein (SEQ ID NO:22) with TPP-binding domains, homologous to pyruvate decarboxylase (protein)
chain: MASINIRVQNLEQPMDVAEYLFRRLHEIGIRSIHGLPGDYNPLALDYLPSCGLRWVGSVNELNAAYAADGYARVKQMGALITTFGVGELSAINGVAGAFSEHVPVVHIVGCPSTASQRNGMLLHHTLGNGDFNIFANMSAQISCEVAKLTNPAEIATQIDHALRVCFIRSRPVYIMLPTDMVQAKVEGARLKEPIDLSEPPNDPEKEAYVVDVVLKYLRAAKNPVILVDACAIRHRVLDEVHDLIEKTNLPVFVTPMGKGAVNEEHPTYGGVYAGDGSHPPQVKDMVESSDLILTIGALKSDFNTAGFSYRTSQLNTIDLHSDHCIVKYSTYPGVQMRGVLRQVIKQLDASEINAQPAPVVENEVAKNRDNSPVITQAFFWPRVGEFLKKNDIVITETGTANFGIWDTKFPSGVTALSQVLWGSIGWSVGACQGAVLAAADDNSDRRTILFVGDGSFQLTAQELSTMIRLKLKPIIFVICNDGFTIERFIHGMEAEYNDIANWDFKALVDVFGGSKTAKKFAVKTKDELDSLLTDPTFNAAECLQFVELYMPKEDAPRALIMTAEASARNNAKTE
modifications: Fungal isolate from soil sample
- Complementation of the aroA mutation (growth of ΔaroA on M63 minimal media) [1]: neither GDC-1 nor GDC-2 are capable of complementing the aroA mutation
- Ability to modify glyphosate in vitro [4]: converts a portion of the labeled glyphosate to a product
- OD600 Mean ([2]; 0 mM glyphosate): 0.049
- OD600 Mean ([2]; 2 mM glyphosate): 0.056
- OD600 Mean ([2]; 5 mM glyphosate): 0.055
- OD600 Mean ([2]; 10 mM glyphosate): 0.057
- OD600 Mean ([2]; 20 mM glyphosate): 0.058
- Pyruvate decarboxylase activity [5]: showed activity as a pyruvate decarboxylase
